Measured values from patent US20240254245A1 (JIANGSU HENGRUI PHARMACEUTICALS, published 2024).

T1: human RANKL protein (Sino Biological, 11682-HNCH) (human, UniProt O14788 136-317, limits assumed)
T1 construct: Bought protein
T1 sequence (looked up): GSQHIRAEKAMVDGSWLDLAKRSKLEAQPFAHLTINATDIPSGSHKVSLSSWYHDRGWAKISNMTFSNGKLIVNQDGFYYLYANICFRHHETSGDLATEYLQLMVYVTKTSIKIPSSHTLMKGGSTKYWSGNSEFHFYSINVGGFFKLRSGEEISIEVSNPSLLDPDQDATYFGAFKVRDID


How the values were obtained:
[1] = biological target: T1, human RANKL protein (Sino Biological, …); experiment: SPR (Biacore), antibody captured on Protein A chip, RANKL in flow, 1:1 fit
Method: Reaction signals were detected in real time by using Biacore, and binding and dissociation curves were obtained. After dissociation was complete in each cycle, the biochip was washed and regenerated with a glycine-hydrochloric acid regeneration solution (GE, BR-1003-54) having a pH of 1.5. Fitting was performed on the experimental data using BIAevaluation version 4.1 software with a 1:1 model, and affinity values were obtained.

[2] = biological target: T1, human RANKL protein (Sino Biological, …); experiment: blocking ELISA: antibody titrated with fixed biotin-human RANKL, on coated human RANK
Method: After the incubation was complete, the plate was washed 3 times with PBST. Streptavidin-HRP (Invitrogen, 434323, diluted at 1:4000) was added at 100 μL/well, and the plate was incubated at 37° C. for 1 h. The supernatant was removed. After the plate was washed 3 times with PBST, TMB chromogenic substrate (KPL, 5120-0077) was added at 100 μL/well, and the plate was incubated at room temperature for 10 to 15 min. […] The absorbance values at 450 nm were taken using a microplate reader.

| Kd [1] | Ratio of affinities (fold increase in affinity relative to denosumab) [1] | koff [1] | kon [1] | IC50 [2] | Binder |
| --- | --- | --- | --- | --- | --- |
| 0.0163 µM | 0.57 fold | 0.000232 s⁻¹ | 14200 M⁻¹ s⁻¹ | – | 2-79L (antibody, V domains shown, Variable regions fused to human constant regions) VH: EVQLLESGGGLVQPGGSLRLSCAASGFTFSSYAMSWVRQAPGKGLEWVSGITGSGGSTYYADSVKGRFTISRDNSKNTLYLQMNSLRAEDTAVYYCAKDPGTTVIMSWFDPWGQGTLVTVSS VL: EIVLTQSPGTLSLSPGERATLSCRASQSVRGRYLAWYQQKPGQAPRLLIYGSSSRATGIPDRFSGSGSGTDFTLTISRLEPEDFAVFYCQQYGSSPRTFGQGTKVEIK |
| 0.041 µM | 0.23 fold | 0.000501 s⁻¹ | 12200 M⁻¹ s⁻¹ | 0.000999 µM | 5-58H (antibody, V domains shown, Variable regions fused to human constant regions) VH: EVQLLESGGGLVQPGGSLRLSCAASGFTFSSYAMSWVRQAPGKGLEWVSGITGSGGSTYYADSVKGRFTISRDNSKNTLYLQMNSLRAEDTAVYYCVQDPGFTYIMSWFDPWGQGTLVTVSS VL: EIVLTQSPGTLSLSPGERATLSCRASQSVRGRYLAWYQQKPGQAPRLLIYGASSRATGIPDRFSGSGSGTDFTLTISRLEPEDFAVFYCQQYGSSPRTFGQGTKVEIK |
| 0.034 µM | 0.27 fold | 0.000583 s⁻¹ | 17200 M⁻¹ s⁻¹ | 0.00137 µM | 5-53H (antibody, V domains shown, Variable regions fused to human constant regions) VH: EVQLLESGGGLVQPGGSLRLSCAASGFTFSSYAMSWVRQAPGKGLEWVSGITGSGGSTYYADSVKGRFTISRDNSKNTLYLQMNSLRAEDTAVYYCAQDPCFTYIMSWFDPWGQGTLVTVSS VL: EIVLTQSPGTLSLSPGERATLSCRASQSVRGRYLAWYQQKPGQAPRLLIYGASSRATGIPDRFSGSGSGTDFTLTISRLEPEDFAVFYCQQYGSSPRTFGQGTKVEIK |
| 0.0207 µM | 0.45 fold | 0.000322 s⁻¹ | 15600 M⁻¹ s⁻¹ | – | 3-83L (antibody, V domains shown, Variable regions fused to human constant regions) VH: EVQLLESGGGLVQPGGSLRLSCAASGFTFSSYAMSWVRQAPGKGLEWVSGITGSGGSTYYADSVKGRFTISRDNSKNTLYLQMNSLRAEDTAVYYCAKDPGTTVIMSWFDPWGQGTLVTVSS VL: EIVLTQSPGTLSLSPGERATLSCRASQALGVRGLAWYQQKPGQAPRLLIYGASSRATGIPDRFSGSGSGTDFTLTISRLEPEDFAVFYCQQYGSSPRTFGQGTKVEIK |
| 0.0203 µM | 0.46 fold | 0.000341 s⁻¹ | 16800 M⁻¹ s⁻¹ | – | 2-76L (antibody, IgG4, V domains shown, Variable regions fused to human constant regions) VH: EVQLLESGGGLVQPGGSLRLSCAASGFTFSSYAMSWVRQAPGKGLEWVSGITGSGGSTYYADSVKGRFTISRDNSKNTLYLQMNSLRAEDTAVYYCAKDPGTTVIMSWFDPWGQGTLVTVSS VL: EIVLTQSPGTLSLSPGERATLSCRASQAIPYNQLAWYQQKPGQAPRLLIYGVSSRATGIPDRFSGSGSGTDFTLTISRLEPEDFAVFYCQQYGSSPRTFGQGTKVEIK |
| 0.00891 µM | 1.04 fold | 0.00026 s⁻¹ | 29200 M⁻¹ s⁻¹ | – | 5-16H (antibody, V domains shown, Variable regions fused to human constant regions) VH: EVQLLESGGGLVQPGGSLRLSCAASGFTFSSYAMSWVRQAPGKGLEWVSGITGSGGSTYYADSVKGRFTISRDNSKNTLYLQMNSLRAEDTAVYYCAKDPASIVIMSWFDPWGQGTLVTVSS VL: EIVLTQSPGTLSLSPGERATLSCRASQSVRGRYLAWYQQKPGQAPRLLIYGASSRATGIPDRFSGSGSGTDFTLTISRLEPEDFAVFYCQQYGSSPRTFGQGTKVEIK |
| 0.019 µM | 0.49 fold | 0.000308 s⁻¹ | 16200 M⁻¹ s⁻¹ | – | 2-72L (antibody, V domains shown, Variable regions fused to human constant regions) VH: EVQLLESGGGLVQPGGSLRLSCAASGFTFSSYAMSWVRQAPGKGLEWVSGITGSGGSTYYADSVKGRFTISRDNSKNTLYLQMNSLRAEDTAVYYCAKDPGTTVIMSWFDPWGQGTLVTVSS VL: EIVLTQSPGTLSLSPGERATLSCRASQSLGARGLAWYQQKPGQAPRLLIYGTSSRATGIPDRFSGSGSGTDFTLTISRLEPEDFAVFYCQQYGSSPRTFGQGTKVEIK |
| 0.00981 µM | 0.94 fold | 0.000253 s⁻¹ | 25800 M⁻¹ s⁻¹ | – | 1-22H (antibody, V domains shown, Variable regions were fused to human heavy and light chain constant regions to form complete chains) VH: EVQLLESGGGLVQPGGSLRLSCAASGFTFADYAMSWVRQAPGKGLEWVSGISASGSSTYYADSVKGRFTISRDNSKNTLYLQMNSLRAEDTAVYYCAKDPGTTVIMSWFDPWGQGTLVTVSS VL: EIVLTQSPGTLSLSPGERATLSCRASQSVRGRYLAWYQQKPGQAPRLLIYGASSRATGIPDRFSGSGSGTDFTLTISRLEPEDFAVFYCQQYGSSPRTFGQGTKVEIK |
| 0.0236 µM | 0.39 fold | 0.00069 s⁻¹ | 29200 M⁻¹ s⁻¹ | – | 5-51H (antibody, V domains shown, Variable regions fused to human constant regions) VH: EVQLLESGGGLVQPGGSLRLSCAASGFTFSSYAMSWVRQAPGKGLEWVSGITGSGGSTYYADSVKGRFTISRDNSKNTLYLQMNSLRAEDTAVYYCAKDPCFSYIMSWFDPWGQGTLVTVSS VL: EIVLTQSPGTLSLSPGERATLSCRASQSVRGRYLAWYQQKPGQAPRLLIYGASSRATGIPDRFSGSGSGTDFTLTISRLEPEDFAVFYCQQYGSSPRTFGQGTKVEIK |
| 0.0197 µM | 0.47 fold | 0.000305 s⁻¹ | 15500 M⁻¹ s⁻¹ | – | 3-37L (antibody, IgG4, V domains shown, Variable regions fused to human constant regions) VH: EVQLLESGGGLVQPGGSLRLSCAASGFTFSSYAMSWVRQAPGKGLEWVSGITGSGGSTYYADSVKGRFTISRDNSKNTLYLQMNSLRAEDTAVYYCAKDPGTTVIMSWFDPWGQGTLVTVSS VL: EIVLTQSPGTLSLSPGERATLSCRASQAIRGRKLAWYQQKPGQAPRLLIYDTSSRATGIPDRFSGSGSGTDFTLTISRLEPEDFAVFYCQQYGSSPRTFGQGTKVEIK |
| 0.0223 µM | 0.41 fold | 0.000335 s⁻¹ | 15000 M⁻¹ s⁻¹ | – | 3-85L (antibody, V domains shown, Variable regions fused to human constant regions) VH: EVQLLESGGGLVQPGGSLRLSCAASGFTFSSYAMSWVRQAPGKGLEWVSGITGSGGSTYYADSVKGRFTISRDNSKNTLYLQMNSLRAEDTAVYYCAKDPGTTVIMSWFDPWGQGTLVTVSS VL: EIVLTQSPGTLSLSPGERATLSCRASQSIPGPRLAWYQQKPGQAPRLLIYGASSRATGIPDRFSGSGSGTDFTLTISRLEPEDFAVFYCQQYGSSPRTFGQGTKVEIK |
| 0.0256 µM | 0.36 fold | 0.000273 s⁻¹ | 10700 M⁻¹ s⁻¹ | – | 2-87L (antibody, IgG4, V domains shown, Variable regions fused to human constant regions) VH: EVQLLESGGGLVQPGGSLRLSCAASGFTFSSYAMSWVRQAPGKGLEWVSGITGSGGSTYYADSVKGRFTISRDNSKNTLYLQMNSLRAEDTAVYYCAKDPGTTVIMSWFDPWGQGTLVTVSS VL: EIVLTQSPGTLSLSPGERATLSCRASQYLPFHRLAWYQQKPGQAPRLLIYDTSSRATGIPDRFSGSGSGTDFTLTISRLEPEDFAVFYCQQYGSSPRTFGQGTKVEIK |
| 0.0135 µM | 0.68 fold | 0.000272 s⁻¹ | 20100 M⁻¹ s⁻¹ | – | 3-20L (antibody, IgG4, V domains shown, Variable regions fused to human constant regions) VH: EVQLLESGGGLVQPGGSLRLSCAASGFTFSSYAMSWVRQAPGKGLEWVSGITGSGGSTYYADSVKGRFTISRDNSKNTLYLQMNSLRAEDTAVYYCAKDPGTTVIMSWFDPWGQGTLVTVSS VL: EIVLTQSPGTLSLSPGERATLSCRASQAIRGPNLAWYQQKPGQAPRLLIYDTSSRATGIPDRFSGSGSGTDFTLTISRLEPEDFAVFYCQQYGSSPRTFGQGTKVEIK |
| 0.0142 µM | 0.65 fold | 0.000222 s⁻¹ | 15700 M⁻¹ s⁻¹ | – | 2-52L (antibody, V domains shown, Variable regions fused to human constant regions) VH: EVQLLESGGGLVQPGGSLRLSCAASGFTFSSYAMSWVRQAPGKGLEWVSGITGSGGSTYYADSVKGRFTISRDNSKNTLYLQMNSLRAEDTAVYYCAKDPGTTVIMSWFDPWGQGTLVTVSS VL: EIVLTQSPGTLSLSPGERATLSCRASQSVRGRYLAWYQQKPGQAPRLLIYQGSSRATGIPDRFSGSGSGTDFTLTISRLEPEDFAVFYCQQYGSSPRTFGQGTKVEIK |
| 0.0171 µM | 0.54 fold | 0.000253 s⁻¹ | 14800 M⁻¹ s⁻¹ | – | 4-64L (antibody, V domains shown, Variable regions fused to human constant regions) VH: EVQLLESGGGLVQPGGSLRLSCAASGFTFSSYAMSWVRQAPGKGLEWVSGITGSGGSTYYADSVKGRFTISRDNSKNTLYLQMNSLRAEDTAVYYCAKDPGTTVIMSWFDPWGQGTLVTVSS VL: EIVLTQSPGTLSLSPGERATLSCRASQSVRGRYLAWYQQKPGQAPRLLIYGASSRATGIPDRFSGSGSGTDFTLTISRLEPEDFAVFYCQQYGSSPRIFGQGTKVEIK |
